PMC4059944 (Nature, 2014)
Where “and” joins values, the source holds several entries; their conditions need not be identical. Equal entries are not always repeated.

Experiments:
Ctf4CTD = experiment: X-ray crystallography of Ctf4CTD crystals soaked with peptide; assay type: binding, yeast (S. cerevisiae); details: soaked 24 hours at 19 °C
[1] = molecular target: T1, Ctf4CTD (yeast Ctf4 amino acids 471 to 927) (S. cerevisiae, UniProt Q01454 471-927); experiment: pull-down
T1 sequence: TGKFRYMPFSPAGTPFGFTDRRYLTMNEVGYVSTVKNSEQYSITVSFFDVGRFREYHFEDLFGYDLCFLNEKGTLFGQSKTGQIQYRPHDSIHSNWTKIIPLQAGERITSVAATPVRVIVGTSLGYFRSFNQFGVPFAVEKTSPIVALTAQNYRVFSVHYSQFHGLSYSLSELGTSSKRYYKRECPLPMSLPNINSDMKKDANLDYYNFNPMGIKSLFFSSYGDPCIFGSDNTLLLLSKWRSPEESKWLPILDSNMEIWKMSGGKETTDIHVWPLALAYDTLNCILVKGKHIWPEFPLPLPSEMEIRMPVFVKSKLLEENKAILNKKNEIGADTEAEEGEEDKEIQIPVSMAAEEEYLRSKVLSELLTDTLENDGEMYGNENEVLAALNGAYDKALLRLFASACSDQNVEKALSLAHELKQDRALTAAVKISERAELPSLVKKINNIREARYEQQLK

[2] = molecular target: T1, Ctf4CTD (yeast Ctf4 amino acids 471 to …); experiment: native MS
Ctf4CTD trimer = experiment: Single-particle electron microscopy of Ctf4CTD complexes; assay type: binding, yeast (S. cerevisiae)
[3] = molecular target: T2, Ctf4 N-terminal deletion (Ctf4CTD, aa 461-927) (S. cerevisiae, UniProt Q01454 461-927); experiment: negative-stain single-particle electron microscopy
T2 sequence: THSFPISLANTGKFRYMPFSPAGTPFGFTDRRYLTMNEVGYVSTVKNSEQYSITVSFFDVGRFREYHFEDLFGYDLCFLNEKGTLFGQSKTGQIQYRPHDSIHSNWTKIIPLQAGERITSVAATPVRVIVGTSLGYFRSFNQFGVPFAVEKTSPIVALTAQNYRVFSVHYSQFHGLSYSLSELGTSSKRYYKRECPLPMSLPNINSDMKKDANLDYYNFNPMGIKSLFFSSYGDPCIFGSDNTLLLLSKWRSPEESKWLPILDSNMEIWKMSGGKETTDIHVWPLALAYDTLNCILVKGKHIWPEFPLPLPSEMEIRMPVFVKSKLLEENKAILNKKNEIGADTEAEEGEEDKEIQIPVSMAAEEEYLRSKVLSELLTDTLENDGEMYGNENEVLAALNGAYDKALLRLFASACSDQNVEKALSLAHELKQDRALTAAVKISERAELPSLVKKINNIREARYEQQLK

Molecule: 137-IDNFDDILGEFES-149 [Pol1 peptide]
- occupancy of binding sites in Ctf4CTD trimer crystal (Ctf4CTD; open crystal form): occupies each of the two binding sites available in this crystal form
- conformational change in helical domain of Ctf4CTD on binding (Ctf4CTD): does not induce an appreciable conformational change in the helical domain of Ctf4CTD

Molecule: MDINIDDILAELDKETTAV [Sld5]
- mode of interaction with Ctf4 (Ctf4CTD; compared with Ctf4-binding motif of Pol1): near-identical mode of interaction

B1: GST-Sld5 (1-20) L12A (domain or fragment)
chain: MDINIDDILAEADKETTAVD
- binding result [1]: binds

B2: GST-Sld5 (residues 1 to 20) (domain or fragment)
chain: MDINIDDILAELDKETTAVD
- binding result [1]: binds

B3: GST-Sld5 (1-20) D7A (domain or fragment)
chain: MDINIDAILAELDKETTAVD
- binding result [1]: binds

B4: Pol1 peptide 137-IDNFDDILGEFES-149 (peptide)
peptide: IDNFDDILGEFES
- stoichiometry N [2]: 1 peptides per Ctf4CTD trimer and 2 peptides per Ctf4CTD trimer and 3 peptides per Ctf4CTD trimer

B5: Sld5 peptide 1-MDINIDDILAELDKETTAV-19 (peptide)
peptide: MDINIDDILAELDKETTAV
- stoichiometry N [2]: 1 peptides per Ctf4CTD trimer and 2 peptides per Ctf4CTD trimer and 3 peptides per Ctf4CTD trimer

B6: Pol1NTD (Pol1-NTD-ProteinA: N-terminal region of Pol1, residues 1 to 351, fused to Protein A) (domain or fragment)
chain: MSSKSEKLEKLRKLQAARNGTSIDDYEGDESDGDRIYDEIDEKEYRARKRQELLHDDFVVDDDGVGYVDRGVEEDWREVDNSSSDEDTGNLASKDSKRKKNIKREKDHQITDMLRTQHSKSTLLAHAKKSQKKSIPIDNFDDILGEFESGEVEKPNILLPSKLRENLNSSPTSEFKSSIKRVNGNDESSHDAGISKKVKIDPDSSTDKYLEIESSPLKLQSRKLRYANDVQDLLDDVENSPVVATKRQNVLQDTLLANPPSAQSLADEEDDEDSDEDIILKRRTMRSVTTTRRVNIDSRSNPSTSPFVTAPGTPIGIKGLTPSKSLQSNTDVATLAVNVKKEDVVDPETDT
- Ctf4CTD - GINS - Pol1NTD complexes observed (Ctf4CTD trimer; reconstituted hetero-assemblies, Pol1 residues 1 to 351 fused to Protein A): varied stoichiometries, with partial or full occupancy of the Ctf4 trimer
- Ctf4CTD - Pol1NTD complex observed (Ctf4CTD trimer; reference-free class averages, box size 448 Å): ring-shaped core linked to one mobile globular density
- binding result [3]: binds
